Experimental data published in publication PMC3499988 (Biochemistry, 2011).
Numbering of substitutions follows the chain as printed. Numbers in names are those of the source. Like-named read-outs stand apart in the source and are kept apart here.

B1: Fab m18 (wild type) (Fab, V domains shown)
VH: VQLLESGPGVVKPSETLSLTCTVSGASVNNYYWTWVRQPPGKGLEWIGNVYDSGDTNYNPSLSSRLSLSMDTSKNQFSLRLSSVTAADTATYYCARYHRHFIRGPLSFDYWGRGTLVTVSS
VL: LQMTQSPSFLSASVGDRVSITCRASQDIQKFLAWYQLTPGDAPKLLMYSASTLQSGVPSRFSGSGSGTEFTLTISGLQPEDFATYYCQHLKRYPYTFGQGTKLEIS
B2: Fab m18 T57A (HCDR2) (Fab, V domains shown)
VH: B1 VH with T56A
VL: B1 VL
B3: Fab m18 Y32A (HCDR1) (Fab, V domains shown)
VH: B1 VH with Y31A
VL: B1 VL
B4: Fab m18 F99Y (HCDR3) (Fab, V domains shown)
VH: B1 VH with F101Y
VL: B1 VL
B5: Fab m18 S62A (HCDR2) (Fab, V domains shown)
VH: B1 VH with S61A
VL: B1 VL
B6: Fab m18 D53A (HCDR2) (Fab, V domains shown)
VH: B1 VH with D52A
VL: B1 VL
B7: Fab m18 S64A (HCDR2) (Fab, V domains shown)
VH: B1 VH with S63A
VL: B1 VL
B8: Fab m18 P61A (HCDR2) (Fab, V domains shown)
VH: B1 VH with P60A
VL: B1 VL
B9: Fab m18 S54A (HCDR2) (Fab, V domains shown)
VH: B1 VH with S53A
VL: B1 VL
B10: Fab m18 S65A (HCDR2) (Fab, V domains shown)
VH: B1 VH with S64A
VL: B1 VL
B11: Fab m18 S52A (LCDR2) (Fab, V domains shown)
VH: B1 VH
VL: B1 VL with S51A
B12: Fab m18 Y33A (HCDR1) (Fab, V domains shown)
VH: B1 VH with Y32A
VL: B1 VL
B13: Fab m18 I100A (HCDR3) (Fab, V domains shown)
VH: B1 VH with I102A
VL: B1 VL
B14: Fab m18 D56A (HCDR2) (Fab, V domains shown)
VH: B1 VH with D55A
VL: B1 VL
B15: Fab m18 K31A (LCDR1) (Fab, V domains shown)
VH: B1 VH
VL: B1 VL with K30A
B16: Fab m18 F99A (HCDR3) (Fab, V domains shown)
VH: B1 VH with F101A
VL: B1 VL
B17: Fab m18 R100aA (HCDR3) (Fab, V domains shown)
VH: B1 VH with R103A
VL: B1 VL
B18: Fab m18 H96A (HCDR3) (Fab, V domains shown)
VH: B1 VH with H98A
VL: B1 VL
B19: Fab m18 Y33F (HCDR1) (Fab, V domains shown)
VH: B1 VH with Y32F
VL: B1 VL

Columns and labels:
Test in all cases: SPR
[1] = target: T1, HIV-1 YU-2 gp120 (HIV-1 (YU-2), UniProt P35961)
[2] = target: T2, HIV-1 HXBc2 gp120 (HIV-1 (HXBc2), UniProt P04578)
[3] = target: T1, HIV-1 YU-2 gp120; remark: listed apart in the source
[4] = target: T2, HIV-1 HXBc2 gp120; remark: listed apart in the source
[5] = target: T1, HIV-1 YU-2 gp120; remark: listed apart in the source
[6] = target: T2, HIV-1 HXBc2 gp120; remark: listed apart in the source
[7] = target: T1, HIV-1 YU-2 gp120; remark: listed apart in the source

| Binder | Kd [1] [nM] | koff [1] [s⁻¹] | kon [1] [M⁻¹ s⁻¹] | Kd [2] [nM] | koff [2] [s⁻¹] | kon [2] [M⁻¹ s⁻¹] | IC50 [3] [nM] | IC50 [4] [nM] | IC50 [5] [nM] | IC50 [6] [nM] | binding result [7] |
| --- | --- | --- | --- | --- | --- | --- | --- | --- | --- | --- | --- |
| B1 | 1.4 | 9.8e-05 | 69000 ± 0.3 | 4.3 | 0.00022 ± 0.9 | 52000 ± 2.2 | 33 ± 3.6 | 36.1 ± 12.9 | 36 ± 1.2 | 56.9 ± 13 | – |
| B2 | 2.5 | 0.00021 ± 0.4 | 84000 ± 2 | – | – | – | 16.8 ± 3.8 | – | 33.1 ± 8 | – | – |
| B3 | 0.4 | 6.1e-05 | 120000 ± 0.2 | – | – | – | 247 ± 15.8 | – | 432 ± 31.5 | – | – |
| B4 | 1.1 | 0.00011 ± 0.9 | 94000 ± 2.5 | 0.9 | 9.2e-05 | 100000 ± 0.03 | 53.7 ± 1.5 | 62.8 ± 12.3 | 75.3 ± 20.6 | 66.7 ± 6.1 | – |
| B5 | 44.2 | 0.0016 ± 0.4 | 35000 ± 0.9 | – | – | – | > 1000 | – | > 1000 | – | – |
| B6 | 7 | 0.00012 ± 1.1 | 16000 ± 1.3 | – | – | – | > 500 | – | > 500 | – | – |
| B7 | 40 | 0.00086 ± 5.9 | 21000 ± 0.7 | – | – | – | > 1000 | – | > 1000 | – | – |
| B8 | 19.3 | 0.00063 ± 1 | 33000 ± 1 | – | – | – | > 1000 | – | > 1000 | – | – |
| B9 | 56.4 | 0.0022 ± 0.7 | 39000 ± 0.5 | – | – | – | > 1000 | – | > 1000 | – | – |
| B10 | 39.1 | 0.0014 ± 0.2 | 36000 ± 1.2 | – | – | – | > 1000 | – | > 1000 | – | – |
| B11 | 4.7 | 8.1e-05 | 17000 ± 0.9 | 0.6 | 2e-05 | 35000 ± 2.1 | ≥ 500 | > 360 | > 500 | > 360 | – |
| B12 | 30.7 | 0.0038 ± 0.2 | 120000 ± 0.5 | – | – | – | 135 ± 7.1 | – | 150 ± 3.5 | – | – |
| B13 | 13.1 | 0.00036 ± 1.4 | 27000 ± 1.3 | 2.8 | 4.6e-05 | 17000 ± 0.07 | > 500 | > 500 | > 500 | > 500 | – |
| B14 | 26.2 | 0.00061 ± 4.5 | 25000 ± 0.6 | – | – | – | > 1000 | – | > 1000 | – | – |
| B15 | 3.1 | 8.9e-05 | 29000 ± 0.4 | 18.7 | 0.00031 ± 1.1 | 17000 ± 0.5 | > 500 | > 500 | > 500 | > 500 | – |
| B16 | 5.9 | 0.00026 ± 1.5 | 45000 ± 2.5 | 1.3 | 0.00013 ± 0.1 | 100000 ± 0.02 | > 500 | 58.2 ± 4.3 | > 500 | 69.5 ± 3.7 | binds |
| B17 | 2.3 | 7.6e-05 | 34000 ± 0.9 | – | – | – | > 500 | – | > 500 | – | – |
| B18 | 11.7 | 0.0011 ± 0.6 | 93000 ± 2.9 | – | – | – | > 500 | – | > 500 | – | – |
| B19 | 56.3 | 0.0024 ± 0.8 | 42000 ± 1.9 | – | – | – | > 1000 | – | > 1000 | – | – |
